Laboratory results reported in patent US20160272683A1 (Novo Nordisk, published 2016).
Numbered stars: 1 amine (or outer) side, 2 acyl side, 3 side chain; on linkers, the order of the positions; unused ones are H or OH. Side chains are listed from the residue outwards. Ends that are not written are not given here. * marks the point of attachment. C20 diacid = O=C(O)CCCCCCCCCCCCCCCCCCC(=O)*; C18 diacid = O=C(O)CCCCCCCCCCCCCCCCC(=O)*; γGlu = O=C(O)[C@H](CCC(=O)[*:2])N[*:1]

T1: human amylin 3(a) receptor (human calcitonin receptor co-expressed with RAMP-3) on BHK570/CRE-luc cells (human, UniProt P30988 25-474; O60896 24-148)
T1 sequence (looked up) 1: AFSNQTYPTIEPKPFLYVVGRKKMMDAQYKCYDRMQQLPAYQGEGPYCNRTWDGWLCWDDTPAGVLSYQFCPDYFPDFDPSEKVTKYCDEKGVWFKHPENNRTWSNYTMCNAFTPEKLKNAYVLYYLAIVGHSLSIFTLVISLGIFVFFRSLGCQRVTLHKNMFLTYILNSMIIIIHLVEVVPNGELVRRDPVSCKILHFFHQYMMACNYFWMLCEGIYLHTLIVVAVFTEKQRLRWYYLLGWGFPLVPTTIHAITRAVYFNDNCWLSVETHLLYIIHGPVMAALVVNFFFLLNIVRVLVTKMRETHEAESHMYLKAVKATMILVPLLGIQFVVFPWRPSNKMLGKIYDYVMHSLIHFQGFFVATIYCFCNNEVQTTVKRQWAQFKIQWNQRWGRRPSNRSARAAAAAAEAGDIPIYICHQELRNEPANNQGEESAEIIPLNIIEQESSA
T1 sequence (looked up) 2: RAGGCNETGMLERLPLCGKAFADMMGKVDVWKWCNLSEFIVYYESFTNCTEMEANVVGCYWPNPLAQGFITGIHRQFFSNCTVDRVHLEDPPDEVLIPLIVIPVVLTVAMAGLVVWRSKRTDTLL

T2: human calcitonin receptor on BHK570/CRE-luc cells (human, UniProt P30988 25-474)
T2 sequence (looked up): T1 sequence (looked up) 1

B1: [N-terminal(C20 diacid-gGlu), des1, 30S, 31G, 33H]mimylin (peptide)
peptide: {C20 diacid-γGlu}-ASELSTAALGRLSAELHELATLPRTETGSGSH-NH2
SMILES: CC(C)C[C@H](NC(=O)[C@H](C)NC(=O)[C@H](C)NC(=O)[C@@H](NC(=O)[C@H](CO)NC(=O)[C@H](CC(C)C)NC(=O)[C@H](CCC(=O)O)NC(=O)[C@H](CO)NC(=O)[C@H](C)NC(=O)CC[C@H](NC(=O)CCCCCCCCCCCCCCCCCCC(=O)O)C(=O)O)[C@@H](C)O)C(=O)NCC(=O)N[C@@H](CCCNC(=N)N)C(=O)N[C@@H](CC(C)C)C(=O)N[C@@H](CO)C(=O)N[C@@H](C)C(=O)N[C@@H](CCC(=O)O)C(=O)N[C@@H](CC(C)C)C(=O)N[C@@H](Cc1c[nH]cn1)C(=O)N[C@@H](CCC(=O)O)C(=O)N[C@@H](CC(C)C)C(=O)N[C@@H](C)C(=O)N[C@H](C(=O)N[C@@H](CC(C)C)C(=O)N1CCC[C@H]1C(=O)N[C@@H](CCCNC(=N)N)C(=O)N[C@H](C(=O)N[C@@H](CCC(=O)O)C(=O)N[C@H](C(=O)NCC(=O)N[C@@H](CO)C(=O)NCC(=O)N[C@@H](CO)C(=O)N[C@@H](Cc1c[nH]cn1)C(N)=O)[C@@H](C)O)[C@@H](C)O)[C@@H](C)O
B2: [des1, 16K(C20 diacid-gGlu), 30S, 31G]mimylin (peptide)
peptide: ASELSTAALGRLSAK([γGlu-C20 diacid])LHELATLPRTETGSGSP-NH2
modifications: N-terminus assumed
SMILES: CC(C)C[C@H](NC(=O)[C@H](C)NC(=O)[C@H](C)NC(=O)[C@@H](NC(=O)[C@H](CO)NC(=O)[C@H](CC(C)C)NC(=O)[C@H](CCC(=O)O)NC(=O)[C@H](CO)NC(=O)[C@H](C)N)[C@@H](C)O)C(=O)NCC(=O)N[C@@H](CCCNC(=N)N)C(=O)N[C@@H](CC(C)C)C(=O)N[C@@H](CO)C(=O)N[C@@H](C)C(=O)N[C@@H](CCCCNC(=O)CC[C@H](NC(=O)CCCCCCCCCCCCCCCCCCC(=O)O)C(=O)O)C(=O)N[C@@H](CC(C)C)C(=O)N[C@@H](Cc1c[nH]cn1)C(=O)N[C@@H](CCC(=O)O)C(=O)N[C@@H](CC(C)C)C(=O)N[C@@H](C)C(=O)N[C@H](C(=O)N[C@@H](CC(C)C)C(=O)N1CCC[C@H]1C(=O)N[C@@H](CCCNC(=N)N)C(=O)N[C@H](C(=O)N[C@@H](CCC(=O)O)C(=O)N[C@H](C(=O)NCC(=O)N[C@@H](CO)C(=O)NCC(=O)N[C@@H](CO)C(=O)N1CCC[C@H]1C(N)=O)[C@@H](C)O)[C@@H](C)O)[C@@H](C)O
B3: [N-terminal(C20 diacid-gGlu), 1A, 23Y, 30S, 31G]mimylin (peptide)
peptide: {C20 diacid-γGlu}-AASELSTAALGRLSAELHELATYPRTETGSGSP-NH2
SMILES: CC(C)C[C@H](NC(=O)[C@H](C)NC(=O)[C@H](C)NC(=O)[C@@H](NC(=O)[C@H](CO)NC(=O)[C@H](CC(C)C)NC(=O)[C@H](CCC(=O)O)NC(=O)[C@H](CO)NC(=O)[C@H](C)NC(=O)[C@H](C)NC(=O)CC[C@H](NC(=O)CCCCCCCCCCCCCCCCCCC(=O)O)C(=O)O)[C@@H](C)O)C(=O)NCC(=O)N[C@@H](CCCNC(=N)N)C(=O)N[C@@H](CC(C)C)C(=O)N[C@@H](CO)C(=O)N[C@@H](C)C(=O)N[C@@H](CCC(=O)O)C(=O)N[C@@H](CC(C)C)C(=O)N[C@@H](Cc1c[nH]cn1)C(=O)N[C@@H](CCC(=O)O)C(=O)N[C@@H](CC(C)C)C(=O)N[C@@H](C)C(=O)N[C@H](C(=O)N[C@@H](Cc1ccc(O)cc1)C(=O)N1CCC[C@H]1C(=O)N[C@@H](CCCNC(=N)N)C(=O)N[C@H](C(=O)N[C@@H](CCC(=O)O)C(=O)N[C@H](C(=O)NCC(=O)N[C@@H](CO)C(=O)NCC(=O)N[C@@H](CO)C(=O)N1CCC[C@H]1C(N)=O)[C@@H](C)O)[C@@H](C)O)[C@@H](C)O
B4: [des1, 19K(C20 diacid-gGlu), 30S, 31G]mimylin (peptide)
peptide: ASELSTAALGRLSAELHK([γGlu-C20 diacid])LATLPRTETGSGSP-NH2
modifications: N-terminus assumed
SMILES: CC(C)C[C@H](NC(=O)[C@H](C)NC(=O)[C@H](C)NC(=O)[C@@H](NC(=O)[C@H](CO)NC(=O)[C@H](CC(C)C)NC(=O)[C@H](CCC(=O)O)NC(=O)[C@H](CO)NC(=O)[C@H](C)N)[C@@H](C)O)C(=O)NCC(=O)N[C@@H](CCCNC(=N)N)C(=O)N[C@@H](CC(C)C)C(=O)N[C@@H](CO)C(=O)N[C@@H](C)C(=O)N[C@@H](CCC(=O)O)C(=O)N[C@@H](CC(C)C)C(=O)N[C@@H](Cc1c[nH]cn1)C(=O)N[C@@H](CCCCNC(=O)CC[C@H](NC(=O)CCCCCCCCCCCCCCCCCCC(=O)O)C(=O)O)C(=O)N[C@@H](CC(C)C)C(=O)N[C@@H](C)C(=O)N[C@H](C(=O)N[C@@H](CC(C)C)C(=O)N1CCC[C@H]1C(=O)N[C@@H](CCCNC(=N)N)C(=O)N[C@H](C(=O)N[C@@H](CCC(=O)O)C(=O)N[C@H](C(=O)NCC(=O)N[C@@H](CO)C(=O)NCC(=O)N[C@@H](CO)C(=O)N1CCC[C@H]1C(N)=O)[C@@H](C)O)[C@@H](C)O)[C@@H](C)O
B5: [N-terminal(C20 diacid-gGlu), des1, 30S, 31G, 33Y]mimylin (peptide)
peptide: {C20 diacid-γGlu}-ASELSTAALGRLSAELHELATLPRTETGSGSY-NH2
SMILES: CC(C)C[C@H](NC(=O)[C@H](C)NC(=O)[C@H](C)NC(=O)[C@@H](NC(=O)[C@H](CO)NC(=O)[C@H](CC(C)C)NC(=O)[C@H](CCC(=O)O)NC(=O)[C@H](CO)NC(=O)[C@H](C)NC(=O)CC[C@H](NC(=O)CCCCCCCCCCCCCCCCCCC(=O)O)C(=O)O)[C@@H](C)O)C(=O)NCC(=O)N[C@@H](CCCNC(=N)N)C(=O)N[C@@H](CC(C)C)C(=O)N[C@@H](CO)C(=O)N[C@@H](C)C(=O)N[C@@H](CCC(=O)O)C(=O)N[C@@H](CC(C)C)C(=O)N[C@@H](Cc1c[nH]cn1)C(=O)N[C@@H](CCC(=O)O)C(=O)N[C@@H](CC(C)C)C(=O)N[C@@H](C)C(=O)N[C@H](C(=O)N[C@@H](CC(C)C)C(=O)N1CCC[C@H]1C(=O)N[C@@H](CCCNC(=N)N)C(=O)N[C@H](C(=O)N[C@@H](CCC(=O)O)C(=O)N[C@H](C(=O)NCC(=O)N[C@@H](CO)C(=O)NCC(=O)N[C@@H](CO)C(=O)N[C@@H](Cc1ccc(O)cc1)C(N)=O)[C@@H](C)O)[C@@H](C)O)[C@@H](C)O
B6: [N-terminal(C18 diacid-gGlu), des1, 23Y, 30S, 31G]mimylin (peptide)
peptide: {C18 diacid-γGlu}-ASELSTAALGRLSAELHELATYPRTETGSGSP-NH2
SMILES: CC(C)C[C@H](NC(=O)[C@H](C)NC(=O)[C@H](C)NC(=O)[C@@H](NC(=O)[C@H](CO)NC(=O)[C@H](CC(C)C)NC(=O)[C@H](CCC(=O)O)NC(=O)[C@H](CO)NC(=O)[C@H](C)NC(=O)CC[C@H](NC(=O)CCCCCCCCCCCCCCCCC(=O)O)C(=O)O)[C@@H](C)O)C(=O)NCC(=O)N[C@@H](CCCNC(=N)N)C(=O)N[C@@H](CC(C)C)C(=O)N[C@@H](CO)C(=O)N[C@@H](C)C(=O)N[C@@H](CCC(=O)O)C(=O)N[C@@H](CC(C)C)C(=O)N[C@@H](Cc1c[nH]cn1)C(=O)N[C@@H](CCC(=O)O)C(=O)N[C@@H](CC(C)C)C(=O)N[C@@H](C)C(=O)N[C@H](C(=O)N[C@@H](Cc1ccc(O)cc1)C(=O)N1CCC[C@H]1C(=O)N[C@@H](CCCNC(=N)N)C(=O)N[C@H](C(=O)N[C@@H](CCC(=O)O)C(=O)N[C@H](C(=O)NCC(=O)N[C@@H](CO)C(=O)NCC(=O)N[C@@H](CO)C(=O)N1CCC[C@H]1C(N)=O)[C@@H](C)O)[C@@H](C)O)[C@@H](C)O
B7: [N-terminal(C20 diacid-gGlu), des1, 23Y, 30S, 31G]mimylin (peptide)
peptide: {C20 diacid-γGlu}-ASELSTAALGRLSAELHELATYPRTETGSGSP-NH2
SMILES: CC(C)C[C@H](NC(=O)[C@H](C)NC(=O)[C@H](C)NC(=O)[C@@H](NC(=O)[C@H](CO)NC(=O)[C@H](CC(C)C)NC(=O)[C@H](CCC(=O)O)NC(=O)[C@H](CO)NC(=O)[C@H](C)NC(=O)CC[C@H](NC(=O)CCCCCCCCCCCCCCCCCCC(=O)O)C(=O)O)[C@@H](C)O)C(=O)NCC(=O)N[C@@H](CCCNC(=N)N)C(=O)N[C@@H](CC(C)C)C(=O)N[C@@H](CO)C(=O)N[C@@H](C)C(=O)N[C@@H](CCC(=O)O)C(=O)N[C@@H](CC(C)C)C(=O)N[C@@H](Cc1c[nH]cn1)C(=O)N[C@@H](CCC(=O)O)C(=O)N[C@@H](CC(C)C)C(=O)N[C@@H](C)C(=O)N[C@H](C(=O)N[C@@H](Cc1ccc(O)cc1)C(=O)N1CCC[C@H]1C(=O)N[C@@H](CCCNC(=N)N)C(=O)N[C@H](C(=O)N[C@@H](CCC(=O)O)C(=O)N[C@H](C(=O)NCC(=O)N[C@@H](CO)C(=O)NCC(=O)N[C@@H](CO)C(=O)N1CCC[C@H]1C(N)=O)[C@@H](C)O)[C@@H](C)O)[C@@H](C)O

Molecular target: T1, human amylin 3(a) receptor (human …)
Assay: cell-based or functional assay

hAmylin-R funct. EC50 (pM), tested with HSA | Binder
125 pM | B1
57 pM | B2
82 pM | B3
49 pM | B4
62 pM | B5
24 pM | B6
67 pM | B7

Molecular target: T2, human calcitonin receptor on …
Assay: cell-based or functional assay

hCTR funct. EC50 (pM), tested with HSA | Binder
72 pM | B1
48 pM | B2
51 pM | B3
28 pM | B4
49 pM | B5
15 pM | B6
24 pM | B7
